Measurements taken from patent US20040214902A1.
No end group written: not given here. *: point of attachment. 6FAM = O=C1OC2(c3ccc(O)cc3Oc3cc(O)ccc32)c2cc(C(=O)*)ccc21

Target: 46-kDa soluble recombinant GST-fused Bcl-2 protein (Santa Cruz Biotechnology) (human) (UniProt P10415)
Test: fluorescence polarization saturation binding

Kd: 6.9 nM
Binder: 6FAM-NLWAAQRYGRELRRMSDEFVDSFKK
